Test results taken from the supplement of paper PMC10567573.

B1: MNAT1 (parent)
chain: SLREYNDFLEEVEEIVFNLTNNVD
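Further: lentivirally expressed fusions sorted by FACS into six bins by GFP to DsRed ratio, PSI derived from sequencing read proportions per bin multiplied by bin number.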

Variants of: B1
Test: protein stability index of a GFP-peptide fusion (GPS, HEK-293T) (PSI 1-6); higher = more stable
Details: c terminus: a fixed tail appended
Variant SRREYNDFLEEVEEIVFNLTNNVD [L2R] has a protein stability index of 3.65.
SDREYNDFLEEVEEIVFNLTNNVD [L2D] gave a protein stability index of 3.33.
Variant SVREYNDFLEEVEEIVFNLTNNVD [L2V] has a protein stability index of 2.33.
With STREYNDFLEEVEEIVFNLTNNVD [L2T] the protein stability index was 3.01.
In the case of SEREYNDFLEEVEEIVFNLTNNVD [L2E], the protein stability index is reported as 3.35.
Variant SCREYNDFLEEVEEIVFNLTNNVD [L2C] has a protein stability index of 2.67.
Work on SNREYNDFLEEVEEIVFNLTNNVD [L2N] yielded a protein stability index of 2.86.
In the case of SLREYNDFLEPVEEIVFNLTNNVD [E11P], the protein stability index is reported as 3.1.
In the case of SLREYNDFLEYVEEIVFNLTNNVD [E11Y], the protein stability index is reported as 2.23.
Variant SLREYNDFLEQVEEIVFNLTNNVD [E11Q] has a protein stability index of 1.72.
In the case of SLREYNDFLEKVEEIVFNLTNNVD [E11K], the protein stability index is reported as 2.07.
Work on SLREYNDFLECVEEIVFNLTNNVD [E11C] yielded a protein stability index of 2.33.
With SLREYNDFLEWVEEIVFNLTNNVD [E11W] the protein stability index was 2.46.
SLREYNDFLEFVEEIVFNLTNNVD [E11F] gave a protein stability index of 1.49.
With SLREYNDFLEGVEEIVFNLTNNVD [E11G] the protein stability index was 2.13.
With SLREYNDFLERVEEIVFNLTNNVD [E11R] the protein stability index was 2.17.
SLREYNDFLEAVEEIVFNLTNNVD [E11A] gave a protein stability index of 1.86.
In the case of SLREYNAFLEEVEEIVFNLTNNVD [D7A], the protein stability index is reported as 2.43.
SLREYNNFLEEVEEIVFNLTNNVD [D7N] showed a protein stability index of 2.49.
Work on SLREYNMFLEEVEEIVFNLTNNVD [D7M] yielded a protein stability index of 2.27.
In the case of SLREYNHFLEEVEEIVFNLTNNVD [D7H], the protein stability index is reported as 1.31.
With SLREYNEFLEEVEEIVFNLTNNVD [D7E] the protein stability index was 1.91.
Work on SLREYNFFLEEVEEIVFNLTNNVD [D7F] yielded a protein stability index of 2.32.
Work on SLREYNPFLEEVEEIVFNLTNNVD [D7P] yielded a protein stability index of 3.
Variant SLREYNSFLEEVEEIVFNLTNNVD [D7S] has a protein stability index of 2.05.
For SLREYNVFLEEVEEIVFNLTNNVD [D7V], the protein stability index was 2.16.
With SLREYNLFLEEVEEIVFNLTNNVD [D7L] the protein stability index was 1.94.
SLREYNDFLEEVEEIVFNLTKNVD [N21K] showed a protein stability index of 1.45.
SLREYNDFLEEVEEIVFNLTENVD [N21E] showed a protein stability index of 2.51.
SLREYNDFLEEVEEIVFNLTRNVD [N21R] showed a protein stability index of 1.95.
SLREYNDFLEEVEEIVFNLTHNVD [N21H] showed a protein stability index of 1.76.
In the case of SLREYNDFLEEVEEIVFNLTCNVD [N21C], the protein stability index is reported as 1.48.
Variant SLREYNDFLEEVEEIVFNLTSNVD [N21S] has a protein stability index of 1.68.
Variant SLREYNDFLEEVEEIVFNLTINVD [N21I] has a protein stability index of 1.73.
In the case of SLREYNDFLEEVEEIVFNLTDNVD [N21D], the protein stability index is reported as 3.
For SLREYNDFLEEVEEIVFNLTLNVD [N21L], the protein stability index was 1.81.
Work on SLREYNDFLEEVEEIQFNLTNNVD [V16Q] yielded a protein stability index of 3.99.
Variant SLREYNDFLEEVEEIPFNLTNNVD [V16P] has a protein stability index of 4.18.
Work on SLREYNDFLEEVEEIFFNLTNNVD [V16F] yielded a protein stability index of 1.75.
SLREYNDFLEEVEEIRFNLTNNVD [V16R] showed a protein stability index of 3.04.
In the case of SLREYNDFLEEVEEIMFNLTNNVD [V16M], the protein stability index is reported as 2.51.
SLREYNDFLEEVEEINFNLTNNVD [V16N] gave a protein stability index of 4.53.
With SLREYNDFLEEVEEICFNLTNNVD [V16C] the protein stability index was 3.
In the case of SLREYNDFDEEVEEIVFNLTNNVD [L9D], the protein stability index is reported as 4.5.
SLREYNDFIEEVEEIVFNLTNNVD [L9I] showed a protein stability index of 2.26.
For SLREYNDFREEVEEIVFNLTNNVD [L9R], the protein stability index was 3.83.
For SLREYNDFWEEVEEIVFNLTNNVD [L9W], the protein stability index was 1.79.
With SLREYNDFSEEVEEIVFNLTNNVD [L9S] the protein stability index was 4.82.
SLREYNDFYEEVEEIVFNLTNNVD [L9Y] gave a protein stability index of 3.59.
Variant SLREYNDFPEEVEEIVFNLTNNVD [L9P] has a protein stability index of 4.61.
Variant SLREYNDFVEEVEEIVFNLTNNVD [L9V] has a protein stability index of 3.77.
In the case of SLREYNDFFEEVEEIVFNLTNNVD [L9F], the protein stability index is reported as 3.05.
Variant SLREYNDFHEEVEEIVFNLTNNVD [L9H] has a protein stability index of 4.22.
Work on SLREYNDFLEEVVEIVFNLTNNVD [E13V] yielded a protein stability index of 2.87.
Variant SLREYNDFLEEVMEIVFNLTNNVD [E13M] has a protein stability index of 2.94.
SLREYNDFLEEVLEIVFNLTNNVD [E13L] gave a protein stability index of 2.5.
Work on SLREYNDQLEEVEEIVFNLTNNVD [F8Q] yielded a protein stability index of 4.55.
Work on SLREYNDRLEEVEEIVFNLTNNVD [F8R] yielded a protein stability index of 4.61.
SLREYNDTLEEVEEIVFNLTNNVD [F8T] showed a protein stability index of 4.55.
SLREYNDDLEEVEEIVFNLTNNVD [F8D] gave a protein stability index of 4.87.
Variant SLREYNDCLEEVEEIVFNLTNNVD [F8C] has a protein stability index of 3.8.
Variant SLREYNDWLEEVEEIVFNLTNNVD [F8W] has a protein stability index of 2.53.
For SLREYNDFLEEVEEWVFNLTNNVD [I15W], the protein stability index was 2.16.
Work on SLREYNDFLEEVEEDVFNLTNNVD [I15D] yielded a protein stability index of 4.82.
With SLREANDFLEEVEEIVFNLTNNVD [Y5A] the protein stability index was 3.78.
Work on SLRERNDFLEEVEEIVFNLTNNVD [Y5R] yielded a protein stability index of 4.19.
In the case of SLRENNDFLEEVEEIVFNLTNNVD [Y5N], the protein stability index is reported as 4.14.
For SLREVNDFLEEVEEIVFNLTNNVD [Y5V], the protein stability index was 2.05.
SLRETNDFLEEVEEIVFNLTNNVD [Y5T] gave a protein stability index of 4.08.
Variant SLREWNDFLEEVEEIVFNLTNNVD [Y5W] has a protein stability index of 2.56.
Variant SLREMNDFLEEVEEIVFNLTNNVD [Y5M] has a protein stability index of 1.73.
Variant SLREKNDFLEEVEEIVFNLTNNVD [Y5K] has a protein stability index of 4.55.
In the case of SLREFNDFLEEVEEIVFNLTNNVD [Y5F], the protein stability index is reported as 1.58.
SLRELNDFLEEVEEIVFNLTNNVD [Y5L] gave a protein stability index of 2.16.
For SLREINDFLEEVEEIVFNLTNNVD [Y5I], the protein stability index was 2.61.
DLREYNDFLEEVEEIVFNLTNNVD [S1D] showed a protein stability index of 2.62.
Work on LLREYNDFLEEVEEIVFNLTNNVD [S1L] yielded a protein stability index of 1.87.
In the case of CLREYNDFLEEVEEIVFNLTNNVD [S1C], the protein stability index is reported as 1.72.
For PLREYNDFLEEVEEIVFNLTNNVD [S1P], the protein stability index was 3.1.
With WLREYNDFLEEVEEIVFNLTNNVD [S1W] the protein stability index was 2.11.
In the case of NLREYNDFLEEVEEIVFNLTNNVD [S1N], the protein stability index is reported as 3.35.
With ELREYNDFLEEVEEIVFNLTNNVD [S1E] the protein stability index was 2.03.
In the case of YLREYNDFLEEVEEIVFNLTNNVD [S1Y], the protein stability index is reported as 1.69.
Work on QLREYNDFLEEVEEIVFNLTNNVD [S1Q] yielded a protein stability index of 2.81.
VLREYNDFLEEVEEIVFNLTNNVD [S1V] showed a protein stability index of 2.1.
SLREYNDFLEEVEEIVFNLQNNVD [T20Q] gave a protein stability index of 2.37.
SLREYNDFLEEVEEIVFNLYNNVD [T20Y] gave a protein stability index of 1.5.
In the case of SLREYNDFLEEVEEIVFNLHNNVD [T20H], the protein stability index is reported as 2.25.
Variant SLREYNDFLEEVEEIVFNLCNNVD [T20C] has a protein stability index of 2.31.
With SLREYNDFLEEVEEIVFNLINNVD [T20I] the protein stability index was 1.41.
Variant SLREYNDFLEEVEEIVFNLDNNVD [T20D] has a protein stability index of 3.91.
Variant SLREYNDFLEEVEEIVFNLSNNVD [T20S] has a protein stability index of 3.05.
SLREYNDFLEEVEEIVFNLGNNVD [T20G] showed a protein stability index of 2.31.
Work on SLREYGDFLEEVEEIVFNLTNNVD [N6G] yielded a protein stability index of 3.17.
